Results on six molecules are retold here after publication PMC6081406 (Nature Communications, 2018).

Experiment [1] addresses GABAAR α1 subunit large cytoplasmic loop (AA 334-420) (UniProt P62813).
Experiment [2] has as its target GABAAR α3 subunit large cytoplasmic loop (AA 392-406) (UniProt P20236).
In experiment [3] the target is GABAAR α2 subunit large cytoplasmic loop (AA 335-419) (UniProt P23576).
Experiment [4] concerns the target T1, SH3 domain of collybistin (CB-SH3) (mouse (murine), UniProt Q3UTH8 4-72).
T1 construct: collybistin (CB1, ARHGEF9), murine, residues 4-72, encompassing the complete SH3 domain (residues 8-67); said to be identical to the SH3 domain of the human CB isoform hPEM-2; pGEX vector construct provided by T. Soykan (Brose lab); also called collybistin SH3; source: E. coli, purified (GST tag, in-situ thrombin cleavage, Superdex 200 SEC); not shown: GST, N-terminal, cleaved
T1 sequence (looked up): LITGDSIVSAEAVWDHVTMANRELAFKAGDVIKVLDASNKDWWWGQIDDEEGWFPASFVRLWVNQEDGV
As to the kind of experiment: ITC; CB-SH3 titrated against the GABAAR α-subunit loops and truncated α2 constructs; purified proteins. Conditions: both partners purified. In general terms: Isothermal titration calorimetry measures the heat released or taken up as one component is titrated into another.

For experiment [5], the target named is T2, GABAA receptor alpha2 large intracellular loop (Mus musculus, UniProt P26048).
T2 chain: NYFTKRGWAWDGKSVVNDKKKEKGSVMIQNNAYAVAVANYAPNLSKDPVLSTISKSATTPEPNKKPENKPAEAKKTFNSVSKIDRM
The experiment is described as follows: ITC.

Experiment [6] concerns the target GABAAR α1 subunit large cytoplasmic loop (AA 334-420) (UniProt P62813). As to the kind of experiment: ITC; CB-SH3 titrated against the receptor loops and truncated constructs.
Experiment [7] deals with large cytoplasmic loop of the GlyR β subunit (AA 378-425). The experiment is described as above.
Experiment [8] deals with GABAAR α3 subunit large cytoplasmic loop (AA 392-406) (UniProt P20236). Described as above.
The target of experiment [9] is GABAAR-α2 large cytoplasmic loop (AA 335-419). As to the kind of experiment: ITC; CB-SH3 titrated against the GABAAR α-subunit loops and truncated α2 constructs; purified proteins.
Experiment [10] addresses GABAAR-α2 loop truncation α2-351St (AA 307-350). Described as above.
The target in experiment [11] is T3, GABAAR α2 subunit large cytoplasmic loop (AA 335-419) (UniProt P23576 335-419).
T3 construct: GABAA receptor α2 subunit, large cytoplasmic loop, AA 335-419; also called α2L; GABAAR-α2L
As to the kind of experiment: ITC; CB-SH3 titrated against the receptor loops and truncated constructs. To be noted: both partners purified.

In experiment [12] the target is GABAAR-α2 loop fragment α2-min3. The experiment is described as follows: ITC; CB-SH3 titrated against the GABAAR α-subunit loops and truncated α2 constructs; purified proteins.
Experiment [13] concerns the target GABAAR-α2 loop truncation α2-335St (AA 307-334). Described as above.

Read-outs that look alike come from different tables or passages of the source. Bounds are passed on as bounds.

As for “E domain of gephyrin (GephE, AA 318-736) (domain or fragment)”, the Kd in [1] is 17 µM; in experiment [2] it was 5 µM; in [3], greater than 500 µM.

B1: GABAAR-α2 loop fragment α2-min2 (peptide)
chain: KGSVMIQNNAYAVAVANYAPNL
notes: GABA-A receptor subunit alpha-2, stretch of the large cytoplasmic loop
Consider B1, for which, in experiment [4], the Kd is greater than 500 µM.

B2: Collybistin SH3 (protein)
chain: ITGDSIVSAEAVWDHVTMANRGVAFKAGDVIKVLDASNKDWWWGQIDDEEGWFPASFVRLWVNQED
B2 showed a Kd in [5] of 1000 nM.

B3: SH3 domain of collybistin (CB-SH3) (domain or fragment, murine, UniProt Q3UTH8 4-72, looked up)
chain: LITGDSIVSAEAVWDHVTMANRELAFKAGDVIKVLDASNKDWWWGQIDDEEGWFPASFVRLWVNQEDGV
notes: collybistin CB1, murine, residues 4-72, encompassing the complete SH3 domain (residues 8-67); pGEX construct provided by T. Soykan (Brose lab); source: E. coli, purified (GST tag, in-situ thrombin cleavage, Superdex 200 SEC); not shown: GST, N-terminal, cleaved
For B3, the dissociation constant (Kd) is 500 µM in [6]; greater than 500 µM in [7]; greater than 500 µM in experiment [8]; 7 µM in experiment [10]; 1300 nM in experiment [11]. The molecule further registered a stoichiometry N in [9] of 0.62.

B4: SH3 domain of collybistin (CB-SH3), Q3UTH8 4-72 (domain or fragment)
chain: LITGDSIVSAEAVWDHVTMANRELAFKAGDVIKVLDASNKDWWWGQIDDEEGWFPASFVRLWVNQEDGV
With B4, the Kd in experiment [12] and in experiment [13] was greater than 500 µM throughout.

B5: GABAAR-α2 loop fragment α2-min1 (peptide)
chain: QNNAYAVAVANYAPN
notes: as for B1
Regarding B5, the Kd in experiment [4] is greater than 500 µM.

As usually defined, the Kd is the free concentration of one partner at which half of the binding sites on the other are occupied at equilibrium, for simple one-to-one binding. Higher therefore signals a looser complex. Usually stoichiometry N stands for the number of molecules, sites or subunits per partner or assembly.
